Reference: ChEMBL document CHEMBL4725261, “Design, synthesis and evaluation of carbamate-linked uridyl-based inhibitors of human ST6Gal I” (Bioorg Med Chem, 2020)

Substrate: CC(=O)N[C@H]1[C@H]([C@H](O)[C@H](O)CO)O[C@](OP(=O)(O)OC[C@H]2O[C@@H](n3ccc(N)nc3=O)[C@H](O)[C@@H]2O)(C(=O)O)C[C@@H]1O
Assay: Binding affinity to recombinant human N-terminal 6His-tagged ST6Gal-1 (Glu44 to Cys406 residues)

B1: Beta-galactoside alpha-2,6-sialyltransferase 1 (Homo sapiens), P15907 (protein)
chain: MIHTNLKKKFSCCVLVFLLFAVICVWKEKKKGSYYDSFKLQTKEFQVLKSLGKLAMGSDSQSVSSSSTQDPHRGRQTLGSLRGLAKAKPEASFQVWNKDSSSKNLIPRLQKIWKNYLSMNKYKVSYKGPGPGIKFSAEALRCHLRDHVNVSMVEVTDFPFNTSEWEGYLPKESIRTKAGPWGRCAVVSSAGSLKSSQLGREIDDHDAVLRFNGAPTANFQQDVGTKTTIRLMNSQLVTTEKRFLKDSLYNEGILIVWDPSVYHSDIPKWYQNPDYNFFNNYKTYRKLHPNQPFYILKPQMPWELWDILQEISPEEIQPNPPSSGMLGIIIMMTLCDQVDIYEFLPSKRKTDVCYYYQKFFDSACTMGAYHPLLYEKNLVKHLNQGTDEDIYLLGKATLPGFRTIHC
Km: 37.2 µM
